From patent US20240216484A1 (URSAPHARM ARZNEIMITTEL, published 2024)

Biological target: SARS-CoV-2 spike protein, extracellular domain (1-1213), recombinant from HEK293 cells (SARS-CoV-2, UniProt P0DTC2 14-1213)

Binder	koff [s⁻¹]	kon [M⁻¹ s⁻¹]
HZI 2-05 (Anlec in TBS; lectin batch isolated from bromelain) (other) MSGLVKLGLWGGNEGTLQDIDGHPTRLTKIVIRSAHAIDALQFDYVEDGKTFAAGQWGGNGGKSDTIEFQPGEYLIAIKGTTGALGAVTNLVRSLTFISNMRTYGPFGLEHGTPFSVPVASGRIVAFYGRFGSLVDAFGIYLMPY	0.005	133
Acm-JRL 2 (Anlec in TBS, Batch 2) (other) MSGLVKLGLWGGNEGTLQDIDGHPTRLTKIVIRSAHAIDALQFDYVEDGKTFAAGQWGGNGGKSDTIEFQPGEYLIAIKGTTGALGAVTNLVRSLTFISNMRTYGPFGLEHGTPFSVPVASGRIVAFYGRFGSLVDAFGIYLMPY	0.003	–
HZI 2-06 (Anlec in dist. water; lectin batch isolated from bromelain) (other) MSGLVKLGLWGGNEGTLQDIDGHPTRLTKIVIRSAHAIDALQFDYVEDGKTFAAGQWGGNGGKSDTIEFQPGEYLIAIKGTTGALGAVTNLVRSLTFISNMRTYGPFGLEHGTPFSVPVASGRIVAFYGRFGSLVDAFGIYLMPY	0.008	359
HZI 2-10 (Anlec in TBS; lectin batch isolated from bromelain, protease inhibited with MMTS) (other) MSGLVKLGLWGGNEGTLQDIDGHPTRLTKIVIRSAHAIDALQFDYVEDGKTFAAGQWGGNGGKSDTIEFQPGEYLIAIKGTTGALGAVTNLVRSLTFISNMRTYGPFGLEHGTPFSVPVASGRIVAFYGRFGSLVDAFGIYLMPY	0.003	286
